From ChEMBL document CHEMBL1126004, “Synthesis and resolution of 7-fluorotryptophans” (Bioorg Med Chem Lett, 1991)

Tests used:
[1] = substrate: N[C@@H](Cc1c[nH]c2c(F)cc(F)cc12)C(=O)O; assay: (§1) Compound was evaluated for Michaelis-Menten constant (Km) in a reaction with tryptophan indole-lyase (tryptophanase) from Escherichia coli
[2] = substrate: N[C@@H](Cc1c[nH]c2c(F)ccc(F)c12)C(=O)O; assay: as §1
[3] = substrate: N[C@@H](Cc1c[nH]c2c(F)cccc12)C(=O)O; assay: as §1
[4] = substrate: N[C@@H](Cc1c[nH]c2ccccc12)C(=O)O; assay: as §1
[5] = substrate: N[C@@H](Cc1c[nH]c2c(F)cc(F)cc12)C(=O)O; assay: (§2) Compound was evaluated for relative maximum velocity (Vmax) in a reaction with tryptophan indole-lyase (tryptophanase) from Escherichia coli
[6] = substrate: N[C@@H](Cc1c[nH]c2c(F)ccc(F)c12)C(=O)O; assay: as §2
[7] = substrate: N[C@@H](Cc1c[nH]c2c(F)cccc12)C(=O)O; assay: as §2
[8] = substrate: N[C@@H](Cc1c[nH]c2ccccc12)C(=O)O; assay: as §2

B1: Tryptophan 2,3-dioxygenase (Homo sapiens), P48775 (protein)
chain: MSGCPFLGNNFGYTFKKLPVEGSEEDKSQTGVNRASKGGLIYGNYLHLEKVLNAQELQSETKGNKIHDEHLFIITHQAYELWFKQILWELDSVREIFQNGHVRDERNMLKVVSRMHRVSVILKLLVQQFSILETMTALDFNDFREYLSPASGFQSLQFRLLENKIGVLQNMRVPYNRRHYRDNFKGEENELLLKSEQEKTLLELVEAWLERTPGLEPHGFNFWGKLEKNITRGLEEEFIRIQAKEESEEKEEQVAEFQKQKEVLLSLFDEKRHEHLLSKGERRLSYRALQGALMIYFYREEPRFQVPFQLLTSLMDIDSLMTKWRYNHVCMVHRMLGSKAGTGGSSGYHYLRSTVSDRYKVFVDLFNLSTYLIPRHWIPKMNPTIHKFLYTAEYCDSSYFSSDESD
[1]
  Km: 490 µM
[2]
  Km: 1700 µM
[3]
  Km: 640 µM
[4]
  Km: 260 µM
[5]
  Vmax: 58%
[6]
  Vmax: 42%
[7]
  Vmax: 29%
[8]
  Vmax: 100%
